Experimental data published in the RNAGym collection of RNA variant scans (doi:10.7554/elife.80360).

B1: HDV Ribozyme (parent)
chain: GGCCGGCAUGGUCCCAGCCUCCUCGCUGGCGCCGGCUGGGCAACAUUCCGAGGGGACCGUCCCCUCGGUAAUGGCGAAUGGGACCCA

Variants of: B1
Assay: self-cleavage, relative activity (ratio to wild type); higher = more cleavage; co-transcriptional
Work on GGCCGGAAUGGUCCCAGCCUCCUCGCUGGCGCCGGCUGGGCACCAUUCCGAGGGGACCGUCCCCUCGGUAAUGGCGAAUGGGACCCA [C7A A43C] yielded a self-cleavage of 0.0923. For GGCCGUCAUGGUCCCAGCCUCCUCGCUGGCGCCGGCUGAGCAACAUUCCGAGGGGACCGUCCCCUCGGUAAUGGCGAAUGGGACCCA [G6U G39A], the self-cleavage was 0.0811. In the case of GGCCGGAAUGGUCCCAGCCUCCUCGCUGGCGCCGGCUGGGCAACAUUCCGAGGGGACCGUCCCCUCGGUAAUGGCGAAUGGGACCCG [C7A A87G], the self-cleavage is reported as 0.521. Variant GGCCGUCAUGGUCCCACCCUCCUCGCUGGCGCCGGCUGGGCAACAUUCCGAGGGGACCGUCCCCUCGGUAAUGGCGAAUGGGACCCA [G6U G17C] has a self-cleavage of 0.0554. For GGCCGUCAUGGUCCCAACCUCCUCGCUGGCGCCGGCUGGGCAACAUUCCGAGGGGACCGUCCCCUCGGUAAUGGCGAAUGGGACCCA [G6U G17A], the self-cleavage was 0.19. Work on GGCCGUCAUGGUCCCAGCCUCCUCGCUGGCGCCGGCUGGGCAACAUUCCGAGGGGACCGUCCCCUCGGUAAUGGCGAAUGGGAACCA [G6U C84A] yielded a self-cleavage of 0.375. In the case of GGCCGUCAUGGUCCCAGCCUCCUCGCUGGCGCCGGCUGGGCAACAUUCCGAGGGGACCGUCCCCUCGGUAAUGGCGAAUGGGAUCCA [G6U C84U], the self-cleavage is reported as 0.208. Variant GGCCGUCAUGGUCCCAGCCUCCUCGCUGGCGCCGGCGGGGCAACAUUCCGAGGGGACCGUCCCCUCGGUAAUGGCGAAUGGGACCCA [G6U U37G] has a self-cleavage of 0.0554. In the case of GGCCGUCAUGGUCCCAGCCUCCUCGCUGGCGCCGGCUGGGCAACAUUCUGAGGGGACCGUCCCCUCGGUAAUGGCGAAUGGGACCCA [G6U C49U], the self-cleavage is reported as 0.485. In the case of GGCCGGAAUGGUUCCAGCCUCCUCGCUGGCGCCGGCUGGGCAACAUUCCGAGGGGACCGUCCCCUCGGUAAUGGCGAAUGGGACCCA [C7A C13U], the self-cleavage is reported as 0.0361. In the case of GGCCGGAAUGGUGCCAGCCUCCUCGCUGGCGCCGGCUGGGCAACAUUCCGAGGGGACCGUCCCCUCGGUAAUGGCGAAUGGGACCCA [C7A C13G], the self-cleavage is reported as 0. With GGCCGUCAUGGUCCCAGCCUCCUCGCUGGCGCCGGCUGGGCAACAUUCCGAGGGGACCGUCCCCUCGGUAAUGUCGAAUGGGACCCA [G6U G74U] the self-cleavage was 0.151. GGCCGUCAUGGUCCCAGCCUCCUCGCUGGCGCCGGCUGGGCAACAUUCCGAGGGGACCGUCCCCUCGGUAAUGACGAAUGGGACCCA [G6U G74A] gave a self-cleavage of 0.16. In the case of GGCCGUCAUGGUCCCAGCCUCCUCCCUGGCGCCGGCUGGGCAACAUUCCGAGGGGACCGUCCCCUCGGUAAUGGCGAAUGGGACCCA [G6U G25C], the self-cleavage is reported as 0.0426. GGCCGUCAUGGUCCCAGCCUCCUCGCUGGCGCCGGCUGGGCAACAUUCCGAGGGGACCGUCCUCUCGGUAAUGGCGAAUGGGACCCA [G6U C63U] gave a self-cleavage of 0.763. GGCCGUCAUGGUCCCAGCCUCCUCGCUGGCGCCCGCUGGGCAACAUUCCGAGGGGACCGUCCCCUCGGUAAUGGCGAAUGGGACCCA [G6U G34C] gave a self-cleavage of 0.0405. In the case of GGCCGUCAGGGUCCCAGCCUCCUCGCUGGCGCCGGCUGGGCAACAUUCCGAGGGGACCGUCCCCUCGGUAAUGGCGAAUGGGACCCA [G6U U9G], the self-cleavage is reported as 0.511. GGCCGGAAUGGUCCCAGCCUCCUCGCUGGCGCCGGCUGGGCAACAUUCCGAGGGGACCGUCCCCUCGGUAAUGGCGAAUGGGGCCCA [C7A A83G] showed a self-cleavage of 0.141. Work on GGCCGGAAUGGUCCCAGCCUCCUCGCUGGCGCCGGCUGGGCAACAUUCCGAGGGGACCGUCCCCUCGGUAAUGGCGAAUGGGUCCCA [C7A A83U] yielded a self-cleavage of 0.0426. GGCCGUCAUGGUCCCAGCCUCCUCGCUGGCGCCGGCUGGGCAACAUUCCGAGGGGACCGUCCCCUCGGUAAUCGCGAAUGGGACCCA [G6U G73C] showed a self-cleavage of 0.266. GGCCGUCAUGGUCCCAGCCUCCUCGCUGGCGCCGGCUGGGCAACAUUCCGAGGGGACCGUCCCCUCGGUAAUUGCGAAUGGGACCCA [G6U G73U] showed a self-cleavage of 0. GGCCGUCAUGGUCCCAGCCUCCUCGCUGGCGCCGGCUGGGCAACAUUCCGAGGGGACCGUCCCCUCGGUAAUGGCCAAUGGGACCCA [G6U G76C] showed a self-cleavage of 0.676. In the case of GGCCGUCAUGGUCCCAGCCUCCUCGCUGGCGCCGGCUGGGCAACAUUCCGAGGGGACCGUCCCCUUGGUAAUGGCGAAUGGGACCCA [G6U C66U], the self-cleavage is reported as 0.645. Work on GGCCGUCAUGGUCCCAGCCUCCUCGCUGGCGCCGGCUGGGCAACAUUCCGAGGGGACCGUCCCCUCGGUAACGGCGAAUGGGACCCA [G6U U72C] yielded a self-cleavage of 0. Work on GGCCGUCAUGGUCCCAGCCUCCUCGCCGGCGCCGGCUGGGCAACAUUCCGAGGGGACCGUCCCCUCGGUAAUGGCGAAUGGGACCCA [G6U U27C] yielded a self-cleavage of 0.237. Work on GGCCGUCAUGGUCCCAGCCUCCUCGCGGGCGCCGGCUGGGCAACAUUCCGAGGGGACCGUCCCCUCGGUAAUGGCGAAUGGGACCCA [G6U U27G] yielded a self-cleavage of 0.172. Work on GGCCGGAAUGGUCCCAGCCUCCUCGCUGGCGCCGGCUGGGCAACAUUCCGAGGGGACCGUCCCCUCGGUAAUGGCGCAUGGGACCCA [C7A A77C] yielded a self-cleavage of 0.115. In the case of GGCCGGAAUGGUCCCAGCCUCCUCGCUGGCGCCGGCUGGGCAACAUUCCGAGGGGACCGUCCCCUCGGUAAUGGCGUAUGGGACCCA [C7A A77U], the self-cleavage is reported as 0.0875. In the case of GGCCGGAAUGGUCCCAGCCUCCUCGCUGGCGCCGGCUGGGCAACAUUCCGAGGGGACCGUCCCCUCGGUAAUGGCGGAUGGGACCCA [C7A A77G], the self-cleavage is reported as 0.107. For GGCCGUCAUGGUCCCAGCCUCCUCGCUGGCGCCGGCUGGGCAACAUUCCGAGGGGACCGUCCCCACGGUAAUGGCGAAUGGGACCCA [G6U U65A], the self-cleavage was 0.431. With GGCCGUCAUGGUCCCAGCCUCCUCGCUGGCGCCGGCUGGGCAACAUUCCGAGGGGACCGUCCCCCCGGUAAUGGCGAAUGGGACCCA [G6U U65C] the self-cleavage was 0.289. In the case of GGCCGGAAUGGUCCUAGCCUCCUCGCUGGCGCCGGCUGGGCAACAUUCCGAGGGGACCGUCCCCUCGGUAAUGGCGAAUGGGACCCA [C7A C15U], the self-cleavage is reported as 0.283.
